Laboratory results: publication PMC6632053, “Incorporation of Putative Helix-Breaking Amino Acids in the Design of Novel Stapled Peptides: Exploring Biophysical and Cellular Permeability Properties” (Molecules, 2019)
Bridge positions count the residues as written; N and C are the ends. Square brackets hold non-standard residues; d marks the D form. Primed or numbered codes have the meaning given here. Lys(N3) = [N-]=[N+]=NCCCC[C@H](N)C(=O)O; NMeQ = CN[C@@H](CCC(N)=O)C(=O)O; R8 = C=CCCCCCC[C@@](C)(N)C(=O)O; dCba = N[C@H](CC1CCC1)C(=O)O; S5 = C=CCCC[C@](C)(N)C(=O)O; NMeA = CN[C@@H](C)C(=O)O; Cba′ = not defined here; Aib = CC(C)(N)C(=O)O; βAla = NCCC(=O)O

Columns and labels:
human Mdm2 (1–125) [1] = target: human Mdm2 (1–125) (human); test: cell-based or functional assay
human Mdm2 (1–125) [2] = target: human Mdm2 (1–125) (human); test: cell-based or functional assay; remark: listed apart in the source
human Mdm2 (1–125) [3] = target: T1, human Mdm2 (1–125) (human); test: ITC; 100–200 µM peptide titrated into 20 µM Mdm2 (1–125), 40 injections of 1 µL (reverse titration for insoluble peptides); 1× PBS pH 7.2, 3% DMSO, 0.001% Tween-20; duplicates; details: both partners purified
T1 construct: Mdm2, human, residues 1-125; the stretch after the TEV site ENLYFQG of the fusion protein; No cleavage of the tags is described, so it is open whether the fusion or cleaved Mdm2 stood in the FP and ITC assays; also called purified recombinant human Mdm2 protein (amino acids 1–125); source: E. coli BL21 (DE3) Rosetta T1R, purified (Ni-NTA, gel filtration)

human Mdm2 (1–125) [4] = target: T1, human Mdm2 (1–125); test: fluorescence polarisation; competition: unlabeled peptide titrated against the complex of 250 nM Mdm2 (1–125) and 50 nM FAM-labeled 12/1 peptide; apparent Kd from the tracer's Kd of […] nM; PBS pH 7.4, 0.1% Tween 20; triplicate; details: both partners purified
human Mdm2 (1–125) [5] = target: T1, human Mdm2 (1–125); test: as above; details: both partners purified; remark: listed apart in the source

T1 sequence (chain, as listed by the source): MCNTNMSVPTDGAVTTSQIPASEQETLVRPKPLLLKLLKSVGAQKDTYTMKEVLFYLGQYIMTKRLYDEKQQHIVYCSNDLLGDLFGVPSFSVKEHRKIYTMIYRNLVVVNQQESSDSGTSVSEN

Binder	Kd (human Mdm2 (1–125) [4]) [nM]	other results
Ac-LTF[R8]EYWQL[Cba′][S5]SAA-NH2 (staple 4-11; reading uncertain) [MP-292]	18.6	EC50, p53 responsive β-lactamase reporter in HCT116 cells (column Cellular) (human Mdm2 (1–125) [1]): 540 nM; EC50, p53 responsive β-lactamase reporter in HCT116 cells, 2% serum (data not shown) (human Mdm2 (1–125) [2]): 700 nM; EC50, p53 responsive β-lactamase reporter in HCT116 cells, 10% serum (data not shown) (human Mdm2 (1–125) [2]): 4200 nM; stoichiometry N (human Mdm2 (1–125) [3]): 1
Ac-LTF[R8]EYAQL[Cba′][S5]SAA-NH2 (staple 4-11; reading uncertain) [MP-292 W7A]	5090	EC50, p53 responsive β-lactamase reporter in HCT116 cells (column Cellular) (human Mdm2 (1–125) [1]): 8800 nM
Ac-LTF[R8]EYWAL[Cba′][S5]SAA-NH2 (staple 4-11; reading uncertain) [MP-292 Q8A]	26.5	
Ac-LTF[R8]EYWQA[Cba′][S5]SAA-NH2 (staple 4-11; reading uncertain) [MP-292 L9A]	12	
Ac-LTF[R8]EYWQL[Cba′][S5]AAA-NH2 (staple 4-11; reading uncertain) [MP-292 S12A]	20.4	
Ac-[dL]TF[R8]EYWQL[Cba′][S5]SAA-NH2 (staple 4-11; reading uncertain) [MP-292 L1(D-Leu)]	31	
Ac-L[dT]F[R8]EYWQL[Cba′][S5]SAA-NH2 (staple 4-11; reading uncertain) [MP-292 T2(D-Thr)]	136	
Ac-LT[dF][R8]EYWQL[Cba′][S5]SAA-NH2 (staple 4-11; reading uncertain) [MP-292 F3(D-Phe)]	6480	
Ac-LTF[R8][dE]YWQL[Cba′][S5]SAA-NH2 (staple 4-11; reading uncertain) [MP-292 E5(D-Glu)]	32	
Ac-LTF[R8]E[dY]WQL[Cba′][S5]SAA-NH2 (staple 4-11; reading uncertain) [MP-292 Y6 (D-Tyr)]	286	
Ac-LTF[R8]EY[dW]QL[Cba′][S5]SAA-NH2 (staple 4-11; reading uncertain) [W6(D-Trp) (MP-384)]	30	
Ac-LTF[R8]EYW[dQ]L[Cba′][S5]SAA-NH2 (staple 4-11; reading uncertain) [MP-292 Q8(D-Gln)]	22	
Ac-LTF[R8]EYWQ[dL][Cba′][S5]SAA-NH2 (staple 4-11; reading uncertain) [MP-292 L9(D-Leu)]	30	
Ac-LTF[R8]EYWQL[dCba][S5]SAA-NH2 (staple 4-11) [MP-292 Cba10(D-Cba)]	1650	
Ac-LTF[R8]EYWQL[Cba′][S5][dS]AA-NH2 (staple 4-11; reading uncertain) [MP-292 S12(D-Ser)]	8.6	
Ac-LTF[R8]EYWQL[Cba′][S5]S[dA]A-NH2 (staple 4-11; reading uncertain) [MP-292 A13(D-Ala)]	17	

Binder	Kd (human Mdm2 (1–125) [4]) [nM]	other results
Ac-LTF[R8]EYWQL[Cba′][S5]SA[dA]-NH2 (staple 4-11; reading uncertain) [MP-292 A14(D-Ala)]	18	
Ac-LTF[Aib]EYWQL[Cba′][Aib]SAA-NH2 (reading uncertain) [Linear Parent (MP-189)]	43.1	
Ac-[dL]TF[Aib]EYWQL[Cba′][Aib]SAA-NH2 (reading uncertain) [Linear L1(D-Leu)]	277	
Ac-LTF[Aib][dE]YWQL[Cba′][Aib]SAA-NH2 (reading uncertain) [Linear E5(D-Glu)]	135	
Ac-LTF[Aib]EYWQ[dL][Cba′][Aib]SAA-NH2 (reading uncertain) [Linear L9(D-Leu)]	88	
Ac-[Lys(N3)][βAla]LTF[R8]EYWAQ[Cba′][S5]SAA-NH2 (staple 6-13; reading uncertain) [MP-081]		Kd (human Mdm2 (1–125) [5]): 19 nM
Ac-[Lys(N3)][βAla]LTF[R8]EYW[NMeA]Q[Cba′][S5]SAA-NH2 (staple 6-13; reading uncertain) [MP-081 A8(N-methyl L-Ala)]		Kd (human Mdm2 (1–125) [5]): 671 nM
Ac-[Lys(N3)][βAla]LTF[R8]EYWA[NMeQ][Cba′][S5]SAA-NH2 (staple 6-13; reading uncertain) [MP-081 Q9(N-methyl L-Gln)]		Kd (human Mdm2 (1–125) [5]): 211 nM
Ac-[Lys(N3)][βAla]LTF[R8]EYWAQ[Cba′][S5]S[NMeA]A-NH2 (staple 6-13; reading uncertain) [MP-081 A13(N-methyl L-Ala)]		Kd (human Mdm2 (1–125) [5]): 10 nM
Ac-[Lys(N3)][βAla]PTF[R8]EYWAQ[Cba′][S5]SAA-NH2 (staple 6-13; reading uncertain) [MP-081 L1P]		Kd (human Mdm2 (1–125) [5]): 21.9 nM
Ac-[Lys(N3)][βAla]LTF[R8]EYWAP[Cba′][S5]SAA-NH2 (staple 6-13; reading uncertain) [MP-081 Q9P]		Kd (human Mdm2 (1–125) [5]): 77.1 nM
Ac-[Lys(N3)][βAla]GTF[R8]EYWAQ[Cba′][S5]SAA-NH2 (staple 6-13; reading uncertain) [MP-081 L1G]		Kd (human Mdm2 (1–125) [5]): 22.1 nM
Ac-[Lys(N3)][βAla]LTF[R8]GYWAQ[Cba′][S5]SAA-NH2 (staple 6-13; reading uncertain) [MP-081 E5G]		Kd (human Mdm2 (1–125) [5]): 61.8 nM
Ac-[Lys(N3)][βAla]LTF[R8]EYWAG[Cba′][S5]SAA-NH2 (staple 6-13; reading uncertain) [MP-081 Q9G]		Kd (human Mdm2 (1–125) [5]): 42 nM
Ac-LTF[R8]EAWQL[Cba′][S5]SAA-NH2 (staple 4-11; reading uncertain) [MP-292 Y6A]	38.9	
